Assay results published in PMC9482650, “Quantitative fragmentomics allow affinity mapping of interactomes” (Nature Communications, 2022).
Values belong to the binder of their own block, whether it stands above or below them.

Legend:
Assay in all cases: holdup assay
Design in all cases: key: below the threshold = too weak to quantify, mostly under pKd 3.1 to 4
APBA1_1, Q02410 = molecular target: T1, APBA1_1, Q02410
T1 sequence (Q02410 651-752, limits assumed, looked up): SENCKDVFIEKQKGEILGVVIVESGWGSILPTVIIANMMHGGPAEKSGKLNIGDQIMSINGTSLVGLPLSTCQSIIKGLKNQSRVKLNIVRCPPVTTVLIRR

CASK, O14936 = molecular target: CASK, O14936
DLG3_3, Q92796 = molecular target: T2, DLG3_3, Q92796
T2 sequence (Q92796 374-475, limits assumed, looked up): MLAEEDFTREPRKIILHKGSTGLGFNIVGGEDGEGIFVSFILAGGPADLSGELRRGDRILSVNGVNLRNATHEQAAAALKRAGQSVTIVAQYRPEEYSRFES

FRMPD3, Q5JV73 = molecular target: FRMPD3, Q5JV73
GOPC, Q9HD26 = molecular target: GOPC, Q9HD26
GORASP2, Q9H8Y8 = molecular target: GORASP2, Q9H8Y8
GRID2IP_1, A4D2P6 = molecular target: GRID2IP_1, A4D2P6
GRID2IP_2, A4D2P6 = molecular target: GRID2IP_2, A4D2P6
HTRA2, O43464 = molecular target: HTRA2, O43464
IL16_4, Q14005 = molecular target: IL16_4, Q14005
Inadl_3, Q8NI35 = molecular target: Inadl_3, Q8NI35
Inadl_9, Q8NI35 = molecular target: Inadl_9, Q8NI35
LIMK2, P53671 = molecular target: LIMK2, P53671
LNX1_2, Q8TBB1 = molecular target: LNX1_2, Q8TBB1
LNX1_3, Q8TBB1 = molecular target: LNX1_3, Q8TBB1
LNX2_2, Q8N448 = molecular target: T3, LNX2_2, Q8N448
T3 sequence (Q8N448 334-432, limits assumed, looked up): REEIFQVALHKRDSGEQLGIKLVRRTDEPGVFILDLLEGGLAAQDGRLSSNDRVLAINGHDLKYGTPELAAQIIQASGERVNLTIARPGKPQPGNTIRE

MAGI2_3, Q86UL8 = molecular target: MAGI2_3, Q86UL8
MAGI2_4, Q86UL8 = molecular target: MAGI2_4, Q86UL8
MAST1, Q9Y2H9 = molecular target: MAST1, Q9Y2H9
MAST2, Q6P0Q8 = molecular target: MAST2, Q6P0Q8
NHERF4_2, Q86UT5 = molecular target: NHERF4_2, Q86UT5
PDZD7_3, Q9H5P4 = molecular target: T4, PDZD7_3, Q9H5P4
T4 sequence (Q9H5P4 857-944, limits assumed, looked up): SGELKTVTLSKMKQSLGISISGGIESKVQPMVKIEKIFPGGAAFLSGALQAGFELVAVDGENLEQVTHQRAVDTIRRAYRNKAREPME

PDZRN3_1, Q9UPQ7 = molecular target: T5, PDZRN3_1, Q9UPQ7
T5 sequence (Q9UPQ7 244-349, limits assumed, looked up): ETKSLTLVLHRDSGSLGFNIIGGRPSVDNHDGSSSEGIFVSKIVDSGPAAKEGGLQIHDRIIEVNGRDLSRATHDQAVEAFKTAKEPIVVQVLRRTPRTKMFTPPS

PDZRN4_1, Q6ZMN7 = molecular target: PDZRN4_1, Q6ZMN7
RADIL, Q96JH8 = molecular target: T6, RADIL, Q96JH8
T6 sequence (Q96JH8 971-1071, limits assumed, looked up): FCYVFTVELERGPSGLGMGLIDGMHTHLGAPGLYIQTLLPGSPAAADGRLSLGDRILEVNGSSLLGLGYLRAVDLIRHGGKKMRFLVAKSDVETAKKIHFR

RHPN1, Q8TCX5 = molecular target: T7, RHPN1, Q8TCX5
T7 sequence (Q8TCX5 508-602, limits assumed, looked up): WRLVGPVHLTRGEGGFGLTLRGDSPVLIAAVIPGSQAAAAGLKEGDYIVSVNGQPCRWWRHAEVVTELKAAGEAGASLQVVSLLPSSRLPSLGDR

SNTG2, Q9NY99 = molecular target: T8, SNTG2, Q9NY99
T8 sequence (Q9NY99 68-166, limits assumed, looked up): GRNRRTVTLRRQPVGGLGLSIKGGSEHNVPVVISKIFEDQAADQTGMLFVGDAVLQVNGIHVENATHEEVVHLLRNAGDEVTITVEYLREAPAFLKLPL

TJP1_2, Q07157 = molecular target: TJP1_2, Q07157
TJP2_1, Q9UDY2 = molecular target: TJP2_1, Q9UDY2
[1] = plain residues with an end cap or a label only (N-terminal biotin on a linker: ado-ado)
[2] = plain residues with an end cap or a label only (N-terminal biotin on a linker: ahx)

Chain of CASK, O14936 (O14936 487-570): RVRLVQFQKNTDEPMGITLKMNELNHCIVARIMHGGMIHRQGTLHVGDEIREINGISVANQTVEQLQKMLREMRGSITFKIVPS
Chain of MAGI2_4, Q86UL8 (Q86UL8 772-865): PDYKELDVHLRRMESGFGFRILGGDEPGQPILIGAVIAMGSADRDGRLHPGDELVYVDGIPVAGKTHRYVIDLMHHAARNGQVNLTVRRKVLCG
Chain of LNX1_3, Q8TBB1 (Q8TBB1 500-596): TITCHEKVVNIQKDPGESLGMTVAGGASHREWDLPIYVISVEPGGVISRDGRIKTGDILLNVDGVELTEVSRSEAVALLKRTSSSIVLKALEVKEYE
Chain of HTRA2, O43464 (O43464 355-458): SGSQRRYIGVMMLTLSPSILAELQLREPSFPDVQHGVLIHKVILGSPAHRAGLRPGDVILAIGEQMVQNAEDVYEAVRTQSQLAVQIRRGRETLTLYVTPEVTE
Chain of TJP2_1, Q9UDY2 (Q9UDY2 24-128): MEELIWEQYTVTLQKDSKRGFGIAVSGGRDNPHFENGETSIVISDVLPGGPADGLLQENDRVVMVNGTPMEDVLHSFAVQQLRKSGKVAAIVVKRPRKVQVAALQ
Chain of FRMPD3, Q5JV73 (Q5JV73 12-100): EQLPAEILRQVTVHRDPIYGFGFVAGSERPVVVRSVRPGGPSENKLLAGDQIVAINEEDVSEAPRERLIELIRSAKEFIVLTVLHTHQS
Chain of TJP1_2, Q07157 (Q07157 181-274): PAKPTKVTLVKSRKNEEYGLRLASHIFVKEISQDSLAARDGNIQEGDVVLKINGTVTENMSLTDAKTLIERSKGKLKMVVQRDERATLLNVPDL
Chain of IL16_4, Q14005 (Q14005 1229-1329): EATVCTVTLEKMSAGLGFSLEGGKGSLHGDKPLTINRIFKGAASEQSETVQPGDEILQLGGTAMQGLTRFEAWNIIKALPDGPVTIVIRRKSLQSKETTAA
Chain of MAST2, Q6P0Q8 (Q6P0Q8 1099-1202): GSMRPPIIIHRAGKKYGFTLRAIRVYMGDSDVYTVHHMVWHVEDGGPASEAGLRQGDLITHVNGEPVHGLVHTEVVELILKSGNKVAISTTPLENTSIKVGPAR
Chain of MAST1, Q9Y2H9 (Q9Y2H9 962-1065): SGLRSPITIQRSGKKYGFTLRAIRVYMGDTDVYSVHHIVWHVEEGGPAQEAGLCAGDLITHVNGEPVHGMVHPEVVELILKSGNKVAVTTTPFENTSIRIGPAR
Chain of NHERF4_2, Q86UT5 (Q86UT5 220-308): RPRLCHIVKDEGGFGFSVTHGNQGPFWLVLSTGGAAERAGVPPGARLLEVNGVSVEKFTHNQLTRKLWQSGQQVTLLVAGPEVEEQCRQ
Chain of LIMK2, P53671 (P53671 143-248): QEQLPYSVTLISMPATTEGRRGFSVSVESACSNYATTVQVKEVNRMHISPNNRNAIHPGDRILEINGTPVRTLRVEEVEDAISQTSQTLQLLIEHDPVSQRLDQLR
Chain of MAGI2_3, Q86UL8 (Q86UL8 600-682): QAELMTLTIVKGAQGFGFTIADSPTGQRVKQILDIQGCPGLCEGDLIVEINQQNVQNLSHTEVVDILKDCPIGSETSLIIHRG
Chain of GRID2IP_2, A4D2P6 (A4D2P6 272-370): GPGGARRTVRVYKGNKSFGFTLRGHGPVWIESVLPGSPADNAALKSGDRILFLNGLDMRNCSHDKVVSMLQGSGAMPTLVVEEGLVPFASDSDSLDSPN
Chain of PDZRN4_1, Q6ZMN7 (Q6ZMN7 213-318): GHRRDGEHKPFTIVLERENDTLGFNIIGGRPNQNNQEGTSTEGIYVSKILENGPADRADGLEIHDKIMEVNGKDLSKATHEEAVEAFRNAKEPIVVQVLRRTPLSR
Chain of GRID2IP_1, A4D2P6 (A4D2P6 1-87): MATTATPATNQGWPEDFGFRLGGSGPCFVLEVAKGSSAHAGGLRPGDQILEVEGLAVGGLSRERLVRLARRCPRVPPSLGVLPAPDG
Chain of Inadl_3, Q8NI35 (Q8NI35 359-469): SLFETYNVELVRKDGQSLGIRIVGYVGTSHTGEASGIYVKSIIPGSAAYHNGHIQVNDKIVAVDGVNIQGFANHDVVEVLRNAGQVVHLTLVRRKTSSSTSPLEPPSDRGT
Chain of Inadl_9, Q8NI35 (Q8NI35 1530-1615): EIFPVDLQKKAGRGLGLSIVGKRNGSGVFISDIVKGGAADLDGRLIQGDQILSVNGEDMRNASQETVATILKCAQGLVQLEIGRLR
Chain of LNX1_2, Q8TBB1 (Q8TBB1 371-470): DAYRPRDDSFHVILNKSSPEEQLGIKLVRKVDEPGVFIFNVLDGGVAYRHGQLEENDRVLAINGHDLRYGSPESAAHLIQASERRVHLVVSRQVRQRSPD

- pKd (APBA1_1, Q02410; [1]): below the threshold
- pKd (CASK, O14936; [1]): below the threshold
- pKd (DLG3_3, Q92796; [1]): below the threshold
- pKd (FRMPD3, Q5JV73; [1]): below the threshold
- pKd (GOPC, Q9HD26; [1]): below the threshold
- pKd (GORASP2, Q9H8Y8; [1]): below the threshold
- pKd (GRID2IP_1, A4D2P6; [1]): below the threshold
- pKd (GRID2IP_2, A4D2P6; [1]): below the threshold
- pKd (HTRA2, O43464; [1]): below the threshold
- pKd (IL16_4, Q14005; [1]): below the threshold
- pKd (Inadl_3, Q8NI35; [1]): below the threshold
- pKd (Inadl_9, Q8NI35; [1]): below the threshold
- pKd (LIMK2, P53671; [1]): below the threshold
- pKd (LNX1_2, Q8TBB1; [1]): below the threshold
- pKd (LNX1_3, Q8TBB1; [1]): below the threshold
- pKd (LNX2_2, Q8N448; [1]): below the threshold
- pKd (MAGI2_3, Q86UL8; [1]): below the threshold
- pKd (MAGI2_4, Q86UL8; [1]): below the threshold
- pKd (MAST1, Q9Y2H9; [1]): below the threshold
- pKd (MAST2, Q6P0Q8; [1]): 3.81
- pKd (NHERF4_2, Q86UT5; [1]): below the threshold
- pKd (PDZD7_3, Q9H5P4; [1]): below the threshold
- pKd (PDZRN3_1, Q9UPQ7; [1]): below the threshold
- pKd (PDZRN4_1, Q6ZMN7; [1]): below the threshold
- pKd (RADIL, Q96JH8; [1]): below the threshold
- pKd (RHPN1, Q8TCX5; [1]): 3.75
- pKd (SNTG2, Q9NY99; [1]): below the threshold
- pKd (TJP1_2, Q07157; [1]): below the threshold
- pKd (TJP2_1, Q9UDY2; [1]): below the threshold
B1: FMNL3, Q8IVF7 (peptide)
chain: DAAHHDESNC

- pKd (APBA1_1, Q02410; [2]): below the threshold
- pKd (CASK, O14936; [2]): 3.79
- pKd (DLG3_3, Q92796; [2]): below the threshold
- pKd (FRMPD3, Q5JV73; [2]): 4.66
- pKd (GOPC, Q9HD26; [2]): below the threshold
- pKd (GORASP2, Q9H8Y8; [2]): below the threshold
- pKd (GRID2IP_1, A4D2P6; [2]): below the threshold
- pKd (GRID2IP_2, A4D2P6; [2]): below the threshold
- pKd (HTRA2, O43464; [2]): below the threshold
- pKd (IL16_4, Q14005; [2]): below the threshold
- pKd (Inadl_3, Q8NI35; [2]): 3.95
- pKd (Inadl_9, Q8NI35; [2]): below the threshold
- pKd (LIMK2, P53671; [2]): below the threshold
- pKd (LNX1_2, Q8TBB1; [2]): below the threshold
- pKd (LNX1_3, Q8TBB1; [2]): below the threshold
- pKd (LNX2_2, Q8N448; [2]): below the threshold
- pKd (MAGI2_3, Q86UL8; [2]): below the threshold
- pKd (MAGI2_4, Q86UL8; [2]): 3.55
- pKd (MAST1, Q9Y2H9; [2]): 4.3
- pKd (MAST2, Q6P0Q8; [2]): 5.08
- pKd (NHERF4_2, Q86UT5; [2]): below the threshold
- pKd (PDZD7_3, Q9H5P4; [2]): below the threshold
- pKd (PDZRN3_1, Q9UPQ7; [2]): below the threshold
- pKd (PDZRN4_1, Q6ZMN7; [2]): below the threshold
- pKd (RADIL, Q96JH8; [2]): 4.3
- pKd (RHPN1, Q8TCX5; [2]): below the threshold
- pKd (SNTG2, Q9NY99; [2]): below the threshold
- pKd (TJP1_2, Q07157; [2]): below the threshold
- pKd (TJP2_1, Q9UDY2; [2]): below the threshold
B2: CNTNAP4, Q9C0A0 (peptide)
chain: VNENQKEYFF
